# Results: paper PMC2816702 (PLoS ONE, 2010)
# Values joined by “and” are separate entries in the source; they are usually repeats but may differ in a detail not shown here. Equal entries are not always repeated.
# B1: Bos d 5 variant A (in native Bos d 5) (natural protein)
# chain: LIVTQTMKGLDIQKVAGTWYSLAMAASDISLLDAQSAPLRVYVEELKPTPEGDLEILLQKWENDECAQKKIIAEKTKIPAVFKIDALNENKVLVLDTDYKKYLLFCMENSAEPEQSLVCQCLVRTPEVDDEALEKFDKALKALPMHIRLSFNPTQLEEQCHI
# B2: Recombinant timothy pollen allergen Phl p 6 (natural protein, UniProt P43215 23-132, looked up)
# chain: GKATTEEQKLIEDVNASFRAAMATTANVPPADKYKTFEAAFTVSSKRNLADAVSKAPQLVPKLDEVYNAAYNAADHAAPEDKYEAFVLHFSEALRIIAGTPEVHAVKPGA
# notes: source: bought: Biomay AG (recombinant)
# B3: Recombinant birch pollen allergen Bet v 1a, P15494 1-160 (natural protein)
# chain: MGVFNYETETTSVIPAARLFKAFILDGDNLFPKVAPQAISSVENIEGNGGPGTIKKISFPEGFPFKYVKDRVDEVDHTNFKYNYSVIEGGPIGDTLEKISNEIKIVATPDGGSILKISNKYHTKGDHEVKAEQVKASKEMGETLLRAVESYLLAHSDAYN
# B4: Recombinant rubber tree allergen Hev b 8 (natural protein)
# chain: SWQTYVDDHLMCDIDGHRLTAAAIIGHDGSVWAQSSSFPQFKSDEVAAVMKDFDEPGSLAPTGLHLGGTKYMVIQGEPGAVIRGKKGSGGITVKKTGQALIIGIYDEPLTPGQCNMIVERLGDYLLDQGL
# B5: Recombinant Alternaria alternata allergen Alt a 1 (natural protein)
# chain: APLESRQDTASCPVTTEGDYVWKISEFYGRKPEGTYYNSLGFNIKATNGGTLDFTCSAQADKLEDHKWYSCGENSFMDFSFDSDRSGLLLKQKVSDDITYVATATLPNYCRAGGNGPKDFVCQGVADAYITLVTLPKSS
# notes: as for B2
# Assays:
# [1] = target: Recombinant major apple allergen Mal d 1 (apple) (UniProt P43211); assay: native MS; ESI FT-ICR, direct infusion, 10 mM ammonium acetate pH 6.9, allergen (monomer) concentration 9 µM
# [2] = target: Recombinant major celery allergen Api g 1 (celery); assay: native MS; ESI FT-ICR, direct infusion, 10 mM ammonium acetate pH 6.9, allergen (monomer) concentration 10 µM
# [3] = target: Recombinant birch pollen profilin Bet v 2 (birch); assay: native MS; ESI FT-ICR, direct infusion, 10 mM ammonium acetate pH 6.9, allergen (monomer) concentration 40 µM
# [4] = target: the molecule itself; assay: native MS
# [5] = target: the molecule itself; assay: native MS; ESI FT-ICR, direct infusion, 10 mM ammonium acetate pH 6.9, allergen (monomer) concentration 10 µM
# [6] = target: T1, Recombinant birch pollen allergen Bet v 1a (birch), P15494; assay: native MS; ESI FT-ICR, direct infusion, 10 mM ammonium acetate pH 6.9, allergen (monomer) concentration 40 µM; conditions: remark: other sources report otherwise
# T1 chain: B3 chain
# [7] = target: the molecule itself; assay: native MS; ESI FT-ICR, direct infusion, 10 mM ammonium acetate pH 6.9, allergen (monomer) concentration 8 µM
molecule,measurement,setting,value
Recombinant major apple allergen Mal d 1 (from UniProt P43211 1-159) (natural protein),stoichiometry N,[1],2
Recombinant major celery allergen Api g 1 (natural protein),stoichiometry N,[2],2
Recombinant birch pollen profilin Bet v 2 (natural protein),stoichiometry N,[3],2 and 3 and 4
B1,abundance ratio among the dimeric species,[4],18%
B2,stoichiometry N,[5],2 and 3
B3,stoichiometry N,[6],2
B4,stoichiometry N,[5],2
B5,stoichiometry N,[7],2
